Test results from the RNAGym collection of RNA variant scans (doi:10.1073/pnas.2313332121).

B1: TPR t1 (parent)
chain: GACCAAUCUGCCCUCAGAGCUCGAGAACAUCUUCGGAUGCAGAGGAGGCAGGCUUCGGUGGCGCGAUAGCGCCAACGUCCUCAACCUCCAAUGCAUCCCACCACAUGAUGAUGCCUGAAGAGCCUUGGUUUUUUG

Variants of: B1
Test: polymerase ribozyme fitness, log enrichment relative to wild type (log ratio); higher = more active; in vitro selection for triplet polymerase activity
In short: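 Fitness measures genotype enrichment against wild-type enrichment on a logarithmic scale, with inverse-variance-weighted averaging of replicates. The logarithm is base 2, and genotypes were kept only with ≥10 input reads and ≥1 read per output in Illumina sequencing. The sequenced libraries came from one triplicate in vitro selection round, including frozen incubation at −7 °C, of PCR-built, transcribed mutant libraries of each subunit of a heterodimeric triplet polymerase ribozyme.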

Variant	polymerase ribozyme fitness (log ratio)
GACCAAUCUGCCCUCAGAGCUCGAGAACAUCUUCGGAUUCAGAGGAGGCAGGCUUCGGUGGCGCGAUAACGCCAACGACCUCAACCUCCAAUGCAUCCCACCACAUGAUGAUGCCUGAACAGCCUUGGUUUUCUG [G39U G69A U78A G120C U133C]	-2.17
GACCAAUCUGCCCUCAGAGCUCGAGAACAUCUUCGGAUUCAGAGUAGACAGGCUUCGGUGGCGCGAUAGCGCAAACGUGCUCAACCUCCAAUGCAUCCCACCACAUGAUGAUACCUGAAGAGCCUUGGUUUUUUG [G39U G45U G48A C73A C79G G113A]	-5.88
GACCAAUCUGCCCUCAGAGCUCGAGAACAUCUUCGGAUUCAGAGGAGGCAGGCUUCGAUGGCGCGAUAGCGCCAACGUCCUCAACCUCCAAUGCAUCCCACCACAUGAUGAUGCCUGAAGAGCCUUGGUUUUUUG [G39U G58A]	0.844
GACCAAUCUGCCCUCAGAGCUCGAGAACAUCUUCGGAUUCAGAGGAGACAGGCUUCGGUGGCGCGAUAGUGCCAACGUCCUCAACCUCCAAUGCAUCCCACCACAUGAUGAUGCCUGAAGAGCCUUGGUUUUUUG [G39U G48A C70U]	-1.15
GACCAAUCUGCCCUCAGAGCUCGAGAACAUCUUCGGAUUCAGAGGAGGCAGGCUUCGGUGGCUCGAUAGCGCCAACGUCCUCAACCUCCAAUGCAUCCCACCACAUGAUGAUACCUGAAGAGCCUUGGUUUUUUG [G39U G63U G113A]	-3.09
GACCAAUCUGCCCUCAGAGCUCGAGAACAUCUUCGGAUUCAGAGGAGGCAGGCUUCGCUGGCGCGAUAGCACCAACGUCCUCAACCUCCAAUGCAUCCCACCACAUGAUCAUGCCUGAAGAGCCUUGGUUUUUUG [G39U G58C G71A G110C]	-6.06
GACCAAUCUGCCCUCAGAGCUCGAGAACAUCUUCGGAUUCAGAGGAGCCAGGCUUCGGUGGCGCGAUAGCGCCAACGGCCUCAACCUCCAAUGCAUCCCACCACAUGAUGAUUCCUGAAGAGCCUUGGUUUUUUG [G39U G48C U78G G113U]	-4.42
GACCAAUCUGCCCUCAGAGCUCGAGAACAUCUUCGGAUUCAGAGGAGGCAGGCUUCGGUCACGCGAUAGCGCCAACGUCCUCAACCUCCAAUGCAUCCCACCACAUGAUGAUGCCUGUAGAGCCUUGGUUUUUUG [G39U G60C G61A A118U]	-1.64
GACCAAUCUGCCCUCAGAGCUCGAGAACAUCUUCGGAUUCAGAAGAGGCAGGCUUCGGUGGCGCGAUAGCGCCAACGUCCUCAACCUCCAAUGCAUCCCACCACAUGAUGAUGCCUGAAGAGCCUUGGUUUUUUG [G39U G44A]	-1.38
GACCAAUCUGCCCUCAGAGCUCGAGAACAUCUUCGGAUUCAGAGGAAGCAGGCUUCGGUGGCGCGAUAGCGCCAACGUCCUCAACUUCCAAUGCAUCCCAACACAUGAUGAUUCCUGAAGAGCCUUGGUUUUUUG [G39U G47A C86U C101A G113U]	-4.62
GACCAAUCUGCCCUCAGAGCUCGAGAACAUCUUCGGAUUCAGAGGAGGCAGGCUUCGGUGUCGCGAUAGCGCCAACGUCCUCAACCUCCAAUGCAUCCCACCACAUGAUGAUGCCUGAAGCGCCUUGGUUUUUUG [G39U G61U A121C]	1.22
GACCAAUCUGCCCUCAGAGCUCGAGAACAUCUUCGGAUUCAGAGGAGGCAGGCUUCGGUGGCGCGAUAGCGCCAACGUCCUCAACCUCCAAUGCAUCCCACCACAUGAUGAUGCCUGAAGAGCCUUGUUUUUUUG [G39U G128U]	-3.06
GACCAAUCUGCCCUCAGAGCUCGAGAACAUCUUCGGAUUCAGAGGAGGCAGGCUUCGGUCGUGCGAUAGCGCCAACGUCCUCAACCUCCAAUGCAUUCCACCACAUGAUGAUGCCUGAAGAGCCUUGGUUUUUUG [G39U G60C C62U C97U]	-3.98
GACCAAUCUGCCCUCAGAGCUCGAGAACAUCUUCGGAUUCAGAGGAGGCAGGCUUCGGUGACGCGAUAGCGCCAACGUCCUCAACCUCCAAUGCAUCCCACCACAUGAUGAUGCCUGAAGAGCCUUGGUUUUUUG [G39U G61A]	-0.103
GACCAAUCUGCCCUCAGAGCUCGAGAACAUCUUCGGAUUCAGAGGAGGCAGGCUUCGGUGUCGCGAUAGCGCCAACGUCCUCAACCUCCAAUGCAUCCCACCACAUGAUGAUGCCUGAAGAGCCUUGGUUUUUUG [G39U G61U]	0.39
GACCAAUCUGCCCUCAGAGCUCGAGAACAUCUUCGGAUUCAGAGGAGGCAGGCUUCGGUGGCGCGAUAGCGCCAACGUCCUCAACCUCCAAUGCAACCCACCACAUGAUGAUGCAUGAAGAGCCUGGGUUUUUUG [G39U U96A C115A U126G]	-6.69
GACCAAUCUGCCCUCAGAGCUCGAGAACAUCUUCGGAUUCAGAGGAGGCAGGCUUCGGUGGCGCGAUAGCGCCAACGGCCUCAACCUCCAAUGCAUCCCACCACAUGAUGAUGCCUGAAGAGCCUUGGUUUUUUG [G39U U78G]	-0.403
GACCAAUCUGCCCUCAGAGCUCGAGAACAUCUUCGGAUUCAGAGGAGGCAGGCUUCGGUGGCGCGAUAGCGCCAACGCCCUCAACCUCCAAUGCAUCCCACCACAUGAUGAUGCCUGAAGAGCCUUGGUUUUUUG [G39U U78C]	-0.554
GACCAAUCUGCCCUCAGAGCUCGAGAACAUCUUCGGAUUCAGAGGAGGCAGCCUUCGGUGGCGCGAUAGCGCCAACGUCCUCAACCUCCAAUGCUUCCCACCACAUGAUGAUGCAUGGAGAGCCUUGGUUUUUUG [G39U G52C A95U C115A A118G]	-3.5
GACCAAUCUGCCCUCAGAGCUCGAGAACAUCUUCGGAUUCAGAGGAGGCAGGCUUCGGUGGCGCGAUAUCGCCAACGUCCUCAACCUCCAAUGCAUCCCACCACAUGAUGAUGCCUGAAGAGCCUUGGUUUUUUG [G39U G69U]	0.0399
GACCAAUCUGCCCUCAGAGCUCGAGAACAUCUUCGGAUUCAGAGGAGUCAGGCUUCGGUGGCGCGAUAGCGCCAACGUCCUCAACCUCCUAUGCAUCCCACCACAUGAUGAUGCCUGAAGAGCCUUGGUUUUUUG [G39U G48U A90U]	-2.92

Variant	polymerase ribozyme fitness (log ratio)
GACCAAUCUGCCCUCAGAGCUCGAGAACAUCUUCGGAUUCAGAGGAGACAGGCUUCGGUGCCGCGAUAGCGCCAACGUCCUCAACCUCCAAUGCAUCCCACCACAUGAUGAUGCCUGAAGAGCCUUGGUUUUUUG [G39U G48A G61C]	-2.96
GACCAAUCUGCCCUCAGAGCUCGAGAACAUCUUCGGAUUCAGAGGAGGCAGGCUUCGGUAACGCGAUAGCGCCAACGUCCUCAACCCCCAAUGCAUCCCAUCACAUGAUGAUGCCUGAAGAGCCUUGGUUUUUUG [G39U G60A G61A U87C C101U]	-3.02
GACCAAUCUGCCCUCAGAGCUCGAGAACAUCUUCGGAUGACGAGGAGGCAGGCUUCGGUGGCGCGAUAGCGCCAACGUCCUCAACCUCCAAUGCAUCCCACCACAUGAUGAUGCAUGAAGAGCCUUGGUUUUUUG [C40A A41C C115A]	-2.44
GACCAAUCUGCCCUCAGAGCUCGAGAACAUCUUCGGAUUCAGAGGAGGCAGGCUACGGUAGCGCGAUAGCGCCAACGUCCUCAACCUCCAAUGCAUCCCACCACAUGAUGAUGCCUGAAGAGCCUUGGUUUUUUG [G39U U55A G60A]	-0.52
GACCAAUCUGCCCUCAGAGCUCGAGAACAUCUUCGGAUUCAGACGAGGCAGGCUUCGGAGGCGCGAUAGCGCCAACGUCCUCAACCUCCAAUGCAUCCCACCACAUGAUGAUGCCUGAAGAGCCUUGGUUUUUUG [G39U G44C U59A]	-2.12
GACCAAUCUGCCCUCAGAGCUCGAGAACAUCUUCGGAUUCAGAGGAGGCAGGCUUCGGUGGCGCGAUAGCGCCAACGGCCUCCACCUCCAGUGCAUCCCACCACAUGAUGAUGCCUGAAGAGCCUUGGAUUUUUG [G39U U78G A83C A91G U129A]	-3.94
GACCAAUCUGCCCUCAGAGCUCGAGAACAUCUUCGGAUUCAGAGGAGGCAGGCUUCGGUGGCUCGAUAGCGCCAACGUCCUCAACCUCCAAUGCAUCCCACCACAUGAUGAUGCCUGAAGUGCCUUGGUUUUUUA [G39U G63U A121U G135A]	0.925
GACCAAUCUGCCCUCAGAGCUCGAGAACAUCUUCGGAUUCAGAGGAGGCAUGCUUCGGUGGCGCGAUAGCGCCAACGUCCUCAACCUCCAAUGCAUCCCACCACAUGAUGAUGCCUGAAGAGCCUUGGUUUUUUG [G39U G51U]	-4.93
GACCAAUCUGCCCUCAGAGCUCGAGAACAUCUUCGGAUUCAGAGGAGGCAGGCGUAGGUGGCGCGAUAGCGCCAACGUCCUCCACCUCUAAUGCAUCCCACCACAUGAUGAUGCCUGAAGAGCCUUGGUUUUUUG [G39U U54G C56A A83C C89U]	-3.7
GACCAAUCUGCCCUCAGAGCUCGAGAACAUCUUCGGAUUCAGAGGAGGCAGGCUGCGGUGGCGCGAUAGCGCCCCCGUCCUCAACCUCCAAUGCAUCCCACCAUAUGAUGAUCCCUGAAGAGCCUUGGUUUUUUG [G39U U55G A74C A75C C104U G113C]	-3.51
GACCAAUCUGCCCUCAGAGCUCGAGAACAUCUUCGGAUUCAGAGGAGGCAGGCUUCGGUGGCGCGAUAGCGCCAACGUCCUCAACCUCCAAUGCAUCCCACCACAUGAUGAUGCCUAAAGAGCCUUGGUUUUUUG [G39U G117A]	-2.1
GACCAAUCUGCCCUCAGAGCUCGAGAACAUCUUCGGAUUCAGAGUAGGCAGGCUUCGGUGGUGCGAUAGCGCCAACGUCCUCAACCUCCAAUGCAUCCCACCACAUGAUGACGCCUGAAGAGCCUUGGUUUUUUG [G39U G45U C62U U112C]	-0.882
GACCAAUCUGCCCUCAGAGCUCGAGAACAUCUUCGGAUUCAGAGGAGGCAGGCUUCGAUGGCGCGAUAGCGCCAACGUCCUCAACCUCCAAUGCAUCCCACCACCUGAUGAUGCCUGAAGAGCCUUGGUUUUUUG [G39U G58A A105C]	-5.05
GACCAAUCUGCCCUCAGAGCUCGAGAACAUCUUCGGAUUCAGAGGAGGCAGGCUUCGGUGGCGCGAUAGCGCCAACGUCCUCAACCUCCAAUGCAUCCCACCACAUGAUGACGCCUGAAGAGCCUUAGUUUUUUG [G39U U112C G127A]	-0.476
GACCAAUCUGCCCUCAGAGCUCGAGAACAUCUUCGGAUUCAGAGGAGGCAGUCUUCGGUGGCGCGAUAGCGCCAACGUCCUCAACCUCCAAUGCUUCCCACCACAUGAGGAUGCCUGAAGAGCCUUGGUUUUUUG [G39U G52U A95U U109G]	-6.38
GACCAAUCUGCCCUCAGAGCUCGAGAACAUCUUCGGAUUCAGAGGAGGCAGGCUUCAGUGGCGCGAUAGCGCCAACGUCCUCAACCUCCAAUGCAUCCCACCACAUGAUGAUGCCUGAAGAGCCUUGGUUUUUUG [G39U G57A]	-0.803
GACCAAUCUGCCCUCAGAGCUCGAGAACAUCUUCGGAUUCAGAGGAGGCAGGCUUCGGUGGCGCGAUAGCGCCAACGCCCUCAACCUCCAAUGCAUCCCACCACAUGAUGAUGCCUGAAGUGCCUUGGUUUUUUG [G39U U78C A121U]	1.16
GACCAAUCUGCCCUCAGAGCUCGAGAACAUCUUCGGAUUCAGAGGAGGCAGGCUUCGGUGGCGCGAUAGCCCCAACGUCCUCAACCUCCAAUGCAUCCCACCACAUGAUGAUGCCGGAAGAGCCUUGGUUUUUUG [G39U G71C U116G]	-3.1
GACCAAUCUGCCCUCAGAGCUCGAGAACAUCUUCGGAUUCAGAGGAGGCAGUCUUCGGUGUCGCGAUAGCGCCAACGUCCUCAACCUCCAAUGCAUCCCACUACAUGAUGAUGCCUGAAGAGCCUUGGUUUUUUG [G39U G52U G61U C102U]	-4.31
GACCAAUCUGCCCUCAGAGCUCGAGAACAUCUUCGGAUUCAGAGGAGGCAGGCUUCGGUUGCGCGAUAGCGCCAACGUCCUCAACCUCCAAUGCAUCCCACCACAUGAUGAUGCCUGAAGAGCCUUGGGUUUUUG [G39U G60U U129G]	-2.5
GACCAAUCUGCCCUCAGAGCUCGAGAACAUCUUCGGAUUCAGAGGAGGCAGGCUUCGGUGGCGCGAUAGCGCCAACGUCCUCAACCUCCAAUGCAUCCCACCACAAGAUGAUGCCUGAAGAGCCUUAGUUUUUUG [G39U U106A G127A]	-2.14
